Laboratory results from patent US20110105394A1 (Novo Nordisk, published 2011).
*1 amine or outer side, *2 acyl side, *3 side chain or, on linkers, in order; H or OH if unused. Bridges are numbered along the chain shown (N, C = ends). Where no end group is shown, it is not given here. The star is where a group is joined. X1 = (S)‑4‑Carboxy‑4‑(17-carboxyheptadecanoylamino)butyryl, O=C(O)CCCCCCCCCCCCCCCCC(=O)N[C@@H](CCC(=O)*)C(=O)O; C20 diacid = O=C(O)CCCCCCCCCCCCCCCCCCC(=O)*; C18 diacid = O=C(O)CCCCCCCCCCCCCCCCC(=O)*; γGlu = O=C(O)[C@H](CCC(=O)[*:2])N[*:1]; AEEA = NCCOCCOCC(=O)O

T1: Amylin 3(a) receptor (human calcitonin receptor (CTa) with RAMP-3) (human, UniProt P30988 25-474; O60896 24-148, limits assumed)
T1 sequence (looked up) 1: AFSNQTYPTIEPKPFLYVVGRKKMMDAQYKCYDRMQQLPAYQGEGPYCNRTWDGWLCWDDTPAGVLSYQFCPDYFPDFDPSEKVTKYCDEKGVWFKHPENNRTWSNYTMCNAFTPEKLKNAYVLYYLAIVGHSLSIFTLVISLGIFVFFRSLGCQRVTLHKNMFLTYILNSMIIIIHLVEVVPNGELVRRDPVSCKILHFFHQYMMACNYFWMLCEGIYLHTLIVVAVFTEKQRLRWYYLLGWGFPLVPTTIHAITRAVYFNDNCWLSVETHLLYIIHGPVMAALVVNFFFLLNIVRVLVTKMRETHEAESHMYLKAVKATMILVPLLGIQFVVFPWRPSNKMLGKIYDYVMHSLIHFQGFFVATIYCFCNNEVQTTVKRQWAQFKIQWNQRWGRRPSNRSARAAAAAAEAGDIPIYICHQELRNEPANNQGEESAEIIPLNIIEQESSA
T1 sequence (looked up) 2: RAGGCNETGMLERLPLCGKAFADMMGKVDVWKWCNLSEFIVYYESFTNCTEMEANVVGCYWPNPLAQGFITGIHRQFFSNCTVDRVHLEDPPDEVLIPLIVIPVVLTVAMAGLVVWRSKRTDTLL


molecular target: T1, Amylin 3(a) receptor (human calcitonin …); experiment: cell-based or functional assay

Potency Luciferase [nM]	Binder
0.07	CNTATCATQRLANFLHHSSNNFGPILPPTNVGSNTY-NH2 (disulfide 1-6; not fully specified (N-terminus); printed as N-alpha-[2-(2-{2-[2-(2-{2-[(S)-4-Carboxy-4-(19-carboxyheptadecanoylamino)butyrylamino]ethoxy}ethoxy)acetylamino]ethoxy}ethoxy)acetyl]-[His17]-pramlintide (2-37))
0.3	{C20 diacid-γGlu}-RCNTATCATQRLANFLHHSSNNFGPILPPTNVGSNTY-NH2 (disulfide 2-7; SMILES CC[C@H](C)[C@H](NC(=O)[C@@H]1CCCN1C(=O)CNC(=O)[C@H](Cc1ccccc1)NC(=O)[C@H](CC(N)=O)NC(=O)[C@H](CC(N)=O)NC(=O)[C@H](CO)NC(=O)[C@H](CO)NC(=O)[C@H](Cc1c[nH]cn1)NC(=O)[C@H](Cc1c[nH]cn1)NC(=O)[C@H](CC(C)C)NC(=O)[C@H](Cc1ccccc1)NC(=O)[C@H](CC(N)=O)NC(=O)[C@H](C)NC(=O)[C@H](CC(C)C)NC(=O)[C@H](CCCNC(=N)N)NC(=O)[C@H](CCC(N)=O)NC(=O)[C@@H](NC(=O)[C@H](C)NC(=O)[C@@H]1CSSC[C@H](NC(=O)[C@H](CCCNC(=N)N)NC(=O)CC[C@H](NC(=O)CCCCCCCCCCCCCCCCCCC(=O)O)C(=O)O)C(=O)N[C@@H](CC(N)=O)C(=O)N[C@@H]([C@@H](C)O)C(=O)N[C@@H](C)C(=O)N[C@@H]([C@@H](C)O)C(=O)N1)[C@@H](C)O)C(=O)N[C@@H](CC(C)C)C(=O)N1CCC[C@H]1C(=O)N1CCC[C@H]1C(=O)N[C@H](C(=O)N[C@@H](CC(N)=O)C(=O)N[C@H](C(=O)NCC(=O)N[C@@H](CO)C(=O)N[C@@H](CC(N)=O)C(=O)N[C@H](C(=O)N[C@@H](Cc1ccc(O)cc1)C(N)=O)[C@@H](C)O)C(C)C)[C@@H](C)O) [N-alpha-[(S)-4-Carboxy-4-(19-carboxynonadecanoylamino)butyryl]-[Arg1,His17]-pramlintide]
0.06	{C20 diacid-γGlu-AEEA}-HHRCNTATCATQRLANFLHHSSQNFGPILPPTNVGSNTY-NH2 (disulfide 4-9; SMILES CC[C@H](C)[C@H](NC(=O)[C@@H]1CCCN1C(=O)CNC(=O)[C@H](Cc1ccccc1)NC(=O)[C@H](CC(N)=O)NC(=O)[C@H](CCC(N)=O)NC(=O)[C@H](CO)NC(=O)[C@H](CO)NC(=O)[C@H](Cc1c[nH]cn1)NC(=O)[C@H](Cc1c[nH]cn1)NC(=O)[C@H](CC(C)C)NC(=O)[C@H](Cc1ccccc1)NC(=O)[C@H](CC(N)=O)NC(=O)[C@H](C)NC(=O)[C@H](CC(C)C)NC(=O)[C@H](CCCNC(=N)N)NC(=O)[C@H](CCC(N)=O)NC(=O)[C@@H](NC(=O)[C@H](C)NC(=O)[C@@H]1CSSC[C@H](NC(=O)[C@H](CCCNC(=N)N)NC(=O)[C@H](Cc2c[nH]cn2)NC(=O)[C@H](Cc2c[nH]cn2)NC(=O)COCCOCCNC(=O)CC[C@H](NC(=O)CCCCCCCCCCCCCCCCCCC(=O)O)C(=O)O)C(=O)N[C@@H](CC(N)=O)C(=O)N[C@@H]([C@@H](C)O)C(=O)N[C@@H](C)C(=O)N[C@@H]([C@@H](C)O)C(=O)N1)[C@@H](C)O)C(=O)N[C@@H](CC(C)C)C(=O)N1CCC[C@H]1C(=O)N1CCC[C@H]1C(=O)N[C@H](C(=O)N[C@@H](CC(N)=O)C(=O)N[C@H](C(=O)NCC(=O)N[C@@H](CO)C(=O)N[C@@H](CC(N)=O)C(=O)N[C@H](C(=O)N[C@@H](Cc1ccc(O)cc1)C(N)=O)[C@@H](C)O)C(C)C)[C@@H](C)O)
0.04	{C18 diacid-γGlu-AEEA-AEEA}-CNTATCATQRLANFLHHSSNNFGPILPPTNVGSNTY-NH2 (disulfide 1-6)
0.04	{5‑carboxypentanoyl-γGlu}-HHHCNTATCATQRLANFLHHSSNNFGPILPPTNVGSNTY-NH2 (disulfide 4-9) [N-alpha-[(S)-4-Carboxy-4-(5-carboxypentanoylamino)butyryl]-His-His-[His1,His17]-pramlintide]
0.1	{C20 diacid-γGlu-AEEA}-HHRCNTATCATQRLANFLRHSSQNFGPILPPTNVGSNTY-NH2 (disulfide 4-9; SMILES CC[C@H](C)[C@H](NC(=O)[C@@H]1CCCN1C(=O)CNC(=O)[C@H](Cc1ccccc1)NC(=O)[C@H](CC(N)=O)NC(=O)[C@H](CCC(N)=O)NC(=O)[C@H](CO)NC(=O)[C@H](CO)NC(=O)[C@H](Cc1c[nH]cn1)NC(=O)[C@H](CCCNC(=N)N)NC(=O)[C@H](CC(C)C)NC(=O)[C@H](Cc1ccccc1)NC(=O)[C@H](CC(N)=O)NC(=O)[C@H](C)NC(=O)[C@H](CC(C)C)NC(=O)[C@H](CCCNC(=N)N)NC(=O)[C@H](CCC(N)=O)NC(=O)[C@@H](NC(=O)[C@H](C)NC(=O)[C@@H]1CSSC[C@H](NC(=O)[C@H](CCCNC(=N)N)NC(=O)[C@H](Cc2c[nH]cn2)NC(=O)[C@H](Cc2c[nH]cn2)NC(=O)COCCOCCNC(=O)CC[C@H](NC(=O)CCCCCCCCCCCCCCCCCCC(=O)O)C(=O)O)C(=O)N[C@@H](CC(N)=O)C(=O)N[C@@H]([C@@H](C)O)C(=O)N[C@@H](C)C(=O)N[C@@H]([C@@H](C)O)C(=O)N1)[C@@H](C)O)C(=O)N[C@@H](CC(C)C)C(=O)N1CCC[C@H]1C(=O)N1CCC[C@H]1C(=O)N[C@H](C(=O)N[C@@H](CC(N)=O)C(=O)N[C@H](C(=O)NCC(=O)N[C@@H](CO)C(=O)N[C@@H](CC(N)=O)C(=O)N[C@H](C(=O)N[C@@H](Cc1ccc(O)cc1)C(N)=O)[C@@H](C)O)C(C)C)[C@@H](C)O)
0.05	X1-HHHCNTATCATQRLANFLHHSSNNFGPILPPTNVGSNTY-NH2 (disulfide 4-9; SMILES CC[C@H](C)[C@H](NC(=O)[C@@H]1CCCN1C(=O)CNC(=O)[C@H](Cc1ccccc1)NC(=O)[C@H](CC(N)=O)NC(=O)[C@H](CC(N)=O)NC(=O)[C@H](CO)NC(=O)[C@H](CO)NC(=O)[C@H](Cc1c[nH]cn1)NC(=O)[C@H](Cc1c[nH]cn1)NC(=O)[C@H](CC(C)C)NC(=O)[C@H](Cc1ccccc1)NC(=O)[C@H](CC(N)=O)NC(=O)[C@H](C)NC(=O)[C@H](CC(C)C)NC(=O)[C@H](CCCNC(=N)N)NC(=O)[C@H](CCC(N)=O)NC(=O)[C@@H](NC(=O)[C@H](C)NC(=O)[C@@H]1CSSC[C@H](NC(=O)[C@H](Cc2c[nH]cn2)NC(=O)[C@H](Cc2c[nH]cn2)NC(=O)[C@H](Cc2c[nH]cn2)NC(=O)CC[C@H](NC(=O)CCCCCCCCCCCCCCCCC(=O)O)C(=O)O)C(=O)N[C@@H](CC(N)=O)C(=O)N[C@@H]([C@@H](C)O)C(=O)N[C@@H](C)C(=O)N[C@@H]([C@@H](C)O)C(=O)N1)[C@@H](C)O)C(=O)N[C@@H](CC(C)C)C(=O)N1CCC[C@H]1C(=O)N1CCC[C@H]1C(=O)N[C@H](C(=O)N[C@@H](CC(N)=O)C(=O)N[C@H](C(=O)NCC(=O)N[C@@H](CO)C(=O)N[C@@H](CC(N)=O)C(=O)N[C@H](C(=O)N[C@@H](Cc1ccc(O)cc1)C(N)=O)[C@@H](C)O)C(C)C)[C@@H](C)O) [N-alpha-[(S)-4-Carboxy-4-(17-carboxyheptadecanoylamino)butyryl]-His-His-[His1,His17]-pramlintide]
